Read-outs that look alike come from different tables or passages of the source.
Key:
HuR RRM3 [1] = target: T1, HuR RRM3 (human, UniProt Q15717 241-326); test: NMR
HuR RRM3 [2] = target: T1, HuR RRM3; test: ITC
HuR RRM3 W261E [3] = target: T2, HuR RRM3 W261E (human, UniProt Q15717 241-326, W261E); test: ITC
HuR RRM3 [4] = target: T1, HuR RRM3; test: ITC; remark: listed apart in the source
HuR RRM3 [5] = target: T1, HuR RRM3; test: NMR; remark: listed apart in the source
HuR RRM3 [6] = target: T1, HuR RRM3; test: ITC; remark: listed apart in the source
HuR RRM3 [7] = target: T1, HuR RRM3; test: ITC; remark: listed apart in the source
HuR RRM3 W261E [8] = target: T2, HuR RRM3 W261E; test: NMR
HuR RRM12 = HuR RRM12 (human, UniProt Q15717 2-189); test: ITC
HuR RRM12, sequence (Q15717 2-189): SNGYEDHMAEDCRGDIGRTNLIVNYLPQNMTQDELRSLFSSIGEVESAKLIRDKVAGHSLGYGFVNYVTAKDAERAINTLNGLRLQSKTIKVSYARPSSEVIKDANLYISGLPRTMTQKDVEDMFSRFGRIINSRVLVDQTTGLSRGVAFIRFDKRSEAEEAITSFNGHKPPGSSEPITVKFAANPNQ

HuR RRM3 FY = HuR RRM3 FY (human, UniProt Q15717 241-326, F247A;Y249A); test: NMR
HuR RRM3 FY, sequence (Q15717 241-326 F247A/Y249A): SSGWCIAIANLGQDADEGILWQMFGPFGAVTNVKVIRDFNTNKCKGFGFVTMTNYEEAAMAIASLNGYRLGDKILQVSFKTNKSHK

HuR RRM3 [9] = target: T1, HuR RRM3; test: ITC; remark: listed apart in the source
HuR RRM3 [10] = target: T1, HuR RRM3; test: NMR; remark: listed apart in the source

T1 sequence (Q15717 241-326): as the sequence (Q15717 241-326 F247A/Y249A) above, with A7F, A9Y counted along it
T2 sequence (Q15717 241-326 W261E): as the sequence (Q15717 241-326 F247A/Y249A) above, with A7F, A9Y, W21E counted along it

B1: AUUUU (ssRNA)
RNA: AUUUU
Q: Does B1 bind (HuR RRM3 [1])?
A: Result: binds

B2: AUUAUU (ssRNA)
RNA: AUUAUU
Q: Which Kd (HuR RRM3 [2]) does the source give for B2 here?
A: Its Kd is 5.75 ± 0.27 µM.

B3: UUUUUU (ssRNA)
RNA: UUUUUU
Q: Does B3 bind (HuR RRM3 W261E [3])?
A: Result: binds

Q: What about the Kd (HuR RRM3 [4]) of the same binder?
A: The Kd was 3.58 ± 0.21 µM.

B4: UUUUA (ssRNA)
RNA: UUUUA
Q: Does B4 bind (HuR RRM3 [1])?
A: Result: binds

B5: AUUAU (ssRNA)
RNA: AUUAU
Q: Does B5 bind (HuR RRM3 [5])?
A: Result: binds

B6: AUUUUU (ssRNA)
RNA: AUUUUU
Q: B6 was tested. Which Kd (HuR RRM3 [6]) did it give?
A: Its Kd is 4.03 ± 0.25 µM.

B7: UUUAUU (ssRNA)
RNA: UUUAUU
Q: How did the Kd (HuR RRM3 [7]) turn out when B7 was run?
A: Its Kd is 5.6 ± 0.4 µM.

B8: UUAUU (ssRNA)
RNA: UUAUU
Q: Does B8 bind (HuR RRM3 [1])?
A: Result: binds

B9: c-fos ARE 11-mer (ssRNA)
RNA: AUUUUUAUUUU
Q: Does B9 bind (HuR RRM3 W261E [8])?
A: Result: binds

Q: What about the Kd (HuR RRM12) of the same binder?
A: The Kd was 0.14 µM.

Q: Does B9 bind (HuR RRM3 FY)?
A: Result: no binding

Q: And the Kd (HuR RRM3 [9])?
A: Its Kd is 0.65 µM.

B10: UUUUU (ssRNA)
RNA: UUUUU
Q: Does B10 bind (HuR RRM3 [10])?
A: Result: binds
